Patent US20240115745A1, “COMPOUNDS COMPRISING A FIBROBLAST ACTIVATION PROTEIN LIGAND AND USE THEREOF” (3B PHARMACEUTICALS GMBH, priority 2021, published 2024)
Bridges are numbered along the chain shown (N, C = ends). [ ]: non-standard residue; d: D form. The star is where a group is joined. mli = maleimide cyclization element: 3,4-maleimide inserted symmetrically, forming a vinyl thioether with each Cys sulfur; Ttds = 1,13-diamino-4,7,10-trioxatridecan-succinamic acid, NCCCOCCOCCOCCCNC(=O)CCC(=O)*; mli(DOTA-Ttd) = 3,4-N-(DOTA-Ttd)-maleimide bridging two Cys S atoms as vinyl thioethers; DOTA = O=C(O)CN1CCN(CC(=O)O)CCN(CC(=O)*)CCN(CC(=O)O)CC1; Nle = CCCC[C@H](N)C(=O)O; Hexanoyl = CCCCCC(=O)*

Each binder was assayed against fibroblast activation protein (FAP) on FAP-expressing human WI-38 fibroblasts (human), Q12884 (assay: competitive FACS on WI-38 cells vs 3 nM Cy5-labeled probe; A = pIC50 >7.0). Conditions: remark: other sources report otherwise.

| Binder | pIC50 Category (FACS) [pIC50] |
| --- | --- |
| {DOTA-Ttds}-[Nle]CPPTEFCD-NH2 (linker 2-8 via mli) [compound DOTA-Ttds-Nle-[Cys(mli)-Pro-Pro-Thr-Glu-Phe-Cys]-Asp-NH2 (2007)] | > 7 |
| {DOTA-Ttds}-[Nle]CPPTEFCD-NH2 (disulfide 2-8) [compound DOTA-Ttds-Nle-[Cys-Pro-Pro-Thr-Glu-Phe-Cys]-Asp-NH2 (1003)] | > 7 |
| Hexanoyl-CPPTEFCD-NH2 (linker 1-7 via mli(DOTA-Ttd)) [compound Hex-[Cys(mli(DOTA-Ttd))-Pro-Pro-Thr-Glu-Phe-Cys]-Asp-NH2 (2020)] | > 7 |
| CPPTEFCD (HELM PEPTIDE1{[O=C(O)CN1CCN(CC(=O)O)CCN(CC(=O)[*:2])CCN(CC(=O)O)CC1].[Nle].C.P.P.T.E.F.C.D.[am]}$PEPTIDE1,PEPTIDE1,3:R3-9:R3$$$V2.0; SMILES CCCC[C@H](NC(=O)CN1CCN(CC(=O)O)CCN(CC(=O)O)CCN(CC(=O)O)CC1)C(=O)N[C@H]1CSSC[C@@H](C(=O)N[C@@H](CC(=O)O)C(N)=O)NC(=O)[C@H](Cc2ccccc2)NC(=O)[C@H](CCC(=O)O)NC(=O)[C@H]([C@@H](C)O)NC(=O)[C@@H]2CCCN2C(=O)[C@@H]2CCCN2C1=O) [compound DOTA-Nle-[Cys-Pro-Pro-Thr-Glu-Phe-Cys]-Asp-NH2 (1004)] | > 7 |
